Entries after “also recorded” stand apart in the source; their conditions may differ.
T1: I domain of α11β1 (Homo sapiens, UniProt Q9UKX5)
T1 construct: An in-house generated I domain of α11β1 was used; made in house
T1 sequence (Q9UKX5 164-345 limits assumed): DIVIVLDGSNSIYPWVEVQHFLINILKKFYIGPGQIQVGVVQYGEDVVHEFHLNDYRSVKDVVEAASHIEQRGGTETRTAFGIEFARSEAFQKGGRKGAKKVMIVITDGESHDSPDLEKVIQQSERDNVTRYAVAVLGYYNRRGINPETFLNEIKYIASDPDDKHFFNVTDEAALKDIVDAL


What was measured:
human α11β1 = human α11β1 (Homo sapiens, UniProt Q9UKX5); experiment: ELISA binding to recombinant human α11β1; settings: binding Yes/No
Procedure: (§1) 0.25 μg/mL of target antigen (recombinant human or mouse α11β1) was plated in a 96-well plate over night at 4° C. Plates were washed (PBS with 0.1% Tween-20), blocked (PBS with 2% BSA and 0.05% Tween-20) for 1 hour at room temperature and incubated with a range of antibody concentrations for 1 hour at room temperature. Subsequently, plates were washed and incubated with biotinylated anti-rabbit/mouse/human IgG in a 1:1000 dilution buffer and incubated for 1 hour at room temperature. After washing the plates, Streptavidin HRP was added at 1:200 in dilution buffer and incubated for 1 hour at room temperature. Ultra TMB ELISA substrate solution was added and the plates incubated for 5 minutes on a plate shaker. The reaction was stopped by adding stop solution to each well and plates were read at 450 nm.

α1β1, α2β1 and/or α10β1 = experiment: Counter-screen for cross-reactivity to other collagen receptors; assay type: binding, human; settings: for Off Target: cross-reactivity to α1β1, α2β1, α10β1
Procedure: Wistar rats were immunized with recombinant human α11β1 protein. An enzyme-linked immunosorbent assay (ELISA) was used to test an immune response against target human and mouse proteins. Subsequently, cell fusion (by electro fusion) was performed with animals that produced a good immune response. All fused cells were plated in a 96-well plate and supernatants were screened by ELISA against soluble human and mouse α11β1. Positive clones were counter-screened against human α1β1, α2β1 and α10β1. […] Purified antibodies were then generated from the selected clones and heavy chain and light chain variable domain sequences were obtained from each purified antibody.
10 mice from 5 different strains were immunized with an appropriate mixture of human α11β1, mouse α11β1 and tolerance breaking protein. Plasma titers were evaluated by ELISA against a mixture of human and mouse α11β1. Popliteal, inguinal, and iliac lymph nodes were collected. ELISA-positive anti-human/mouse α11β1 hybridomas were expanded and subjected to a secondary screen against human and mouse α11β1, control HIS protein, and a counter-screen was performed against human […], α2β1 and α10β1. Supernatant IgG concentration was sufficient for functional screening. Selected hybridomas satisfying all the criteria were cloned and clonal hybridomas were confirmed by ELISA against human and mouse α11β1 and subsequently scaled-up and IgGs were purified. Heavy and light chain variable regions of selected hybridomas were then sequenced.
α11β1 belongs to a family of collagen receptors and has a relatively high homology to them. Therefore, the novel antibodies of this invention were counter-screened against α1β1, α2β1 and/or α10β1. Table 2 includes results of cross-reactivity to the other receptors.

I domain of α11β1 = target: T1, I domain of α11β1; experiment: ELISA binding to in-house generated I domain of α11β1; settings: for binding to I domain of α11β1 (high, medium, low): ELISA; for I Domain binding: Yes/No
Procedure: as §1
22 Data was also collected to determine whether antibodies of interest bind to the I domain of α11β1. An in-house generated I domain of α11β1 was used. […] Mouse antibodies 10-F23, 10-L15, 7-O8, 6-A12, 9-G05 and 9-E16 and rabbit antibodies 7-H12 and 2-D3 were also tested for binding against the in-house generated α11031 domain. FIGS. 3A and 3B show graphs illustrating binding data from exemplary mAbs.

[1] = test system: human pulmonary fibroblasts (HPFs); experiment: FACS antibody binding to human pulmonary fibroblasts; settings: binding Yes/No
Procedure: (§2) Human Pulmonary Fibroblasts (ScienCell) were cultured in complete Fibroblast Growth Medium (ScienCell) until 80% confluent in T-150 flasks. Cells were washed and harvested using Accutase. Cells were seeded into T-150 flasks at 7,500 cells/cm^2 in complete FGF and cultured for 72 hours. Cells were then washed and starved in serum reduced medium for 24 hours. After starvation, cells were treated with TGFβ-1 (R&D Systems) for 72 hours. Cells were harvested using Accutase and seeded in 96-well conical bottom plates. Cells were blocked with Heat Inactived Fetal Bovine Serum (Gibco) for 30 minutes at 4° C. Cells were then incubated with anti-α11 antibodies at the doses described in each figure for 30 minutes at 4° C. A human anti-α11 antibody (Creative BioLabs) was included as a positive control as well as the appropriate IgG isotype negative controls. Cells were washed twice and incubated with PE conjugated secondary antibodies specific to the IgG class of the anti-α11 antibodies being tested for 30 minutes at 4° C. Cells were washed twice and fixed in 1% PFA for 30 minutes. Cells were acquired on a FACS Verse […]. Data were analyzed by gating on single cells and determining the geometric Mean Fluorescence Intensity (gMFI) in the PE channel for each sample.
(§3) Binding to a physiologically relevant primary human cell type was also tested. Human pulmonary fibroblasts (HPF) and TGFβ treatment were used to induce a fibroblast-to-myofibroblast transition (FMT), giving rise to myofibroblasts (MF). […] Additionally, HPFs express α11 and α2β1, other collagen binding receptors, which means that HPFs can be to test cross-reactivity of antibodies of interest.

myofibroblasts (MF) = experiment: FACS antibody binding to myofibroblasts; parameters: species or system human; settings: binding Yes/No
Procedure: as §2, §3

[2] = test system: CHO-K1 cells expressing human α11; experiment: Cell adhesion inhibition (xCelligence), type I collagen; assay type: cell-based; settings: for inhibition of cell adhesion to type I collagen: CHO-K1 hu α11 cells; for Inhibition of CHO-K1 adhesion to collagen: Yes/No
Procedure: 0.6×10^6 cells/mL were incubated with each antibody at a range of concentrations for 20 minutes at 37° C. E-Plate VIEW 96 PET plate coated with 100 ng/mL type I collagen or PBS overnight at room temperature was blocked in 3% BSA for 1 house at room temperature. After washing the plate with PBS, cell and antibody mixture was added to the wells and the plate was places into an xCelligence machine. Cell adhesion was recorded over 6 hours. The time point of maximum cell adhesion was used for comparison relative to control.
A CHO-K1 hu α11 cell line was used to assess the ability of mAbs to block α11β1-mediated binding to type I collagen. […] In the “Untreated” condition, cells were plated on type I collagen but no antibody was added and in the “Uncoated” condition, cells were seeded onto BSA-coated wells containing no type I collagen. Statistics were performed using one-way ANOVA followed by Dunnett's multiple comparisons test. […] Therefore, it is possible that these mAbs bind on an α11β1 domain that keeps the integrin in a low or intermediate affinity state. […] Nine human mAbs were also tested for their ability to inhibit the binding of human CHO-α11 cells to type I collagen.

Chain of human α11β1 (Q9UKX5 23-1141 limits assumed): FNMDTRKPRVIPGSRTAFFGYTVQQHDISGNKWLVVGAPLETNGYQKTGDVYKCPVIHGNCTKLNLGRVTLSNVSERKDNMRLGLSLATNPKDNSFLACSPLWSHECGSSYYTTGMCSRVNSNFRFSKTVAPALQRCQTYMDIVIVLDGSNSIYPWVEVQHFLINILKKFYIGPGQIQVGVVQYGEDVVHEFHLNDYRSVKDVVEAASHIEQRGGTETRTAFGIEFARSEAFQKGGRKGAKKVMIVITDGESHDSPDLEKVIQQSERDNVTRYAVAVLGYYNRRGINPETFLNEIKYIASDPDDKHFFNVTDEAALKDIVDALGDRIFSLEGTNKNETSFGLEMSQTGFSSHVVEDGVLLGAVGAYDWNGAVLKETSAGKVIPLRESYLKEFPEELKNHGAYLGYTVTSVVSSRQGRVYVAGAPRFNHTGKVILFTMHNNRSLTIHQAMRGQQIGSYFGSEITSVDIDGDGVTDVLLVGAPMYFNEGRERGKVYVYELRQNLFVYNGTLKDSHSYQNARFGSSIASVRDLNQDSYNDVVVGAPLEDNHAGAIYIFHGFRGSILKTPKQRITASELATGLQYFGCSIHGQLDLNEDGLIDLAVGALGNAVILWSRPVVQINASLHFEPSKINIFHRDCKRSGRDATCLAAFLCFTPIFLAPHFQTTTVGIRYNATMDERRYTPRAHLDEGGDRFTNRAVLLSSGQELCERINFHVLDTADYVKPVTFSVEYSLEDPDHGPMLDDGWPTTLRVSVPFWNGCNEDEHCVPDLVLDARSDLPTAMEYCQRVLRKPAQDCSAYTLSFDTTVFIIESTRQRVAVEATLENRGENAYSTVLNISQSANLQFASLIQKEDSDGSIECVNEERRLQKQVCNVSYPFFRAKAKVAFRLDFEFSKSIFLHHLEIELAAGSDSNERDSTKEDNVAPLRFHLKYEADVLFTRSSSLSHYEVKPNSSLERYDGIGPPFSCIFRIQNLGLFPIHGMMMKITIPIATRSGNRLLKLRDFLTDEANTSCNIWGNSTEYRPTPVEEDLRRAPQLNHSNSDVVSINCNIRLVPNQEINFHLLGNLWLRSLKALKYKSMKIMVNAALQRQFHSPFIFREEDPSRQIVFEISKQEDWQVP
Chain of human α11β1 (P05556 21-728 partner limits assumed): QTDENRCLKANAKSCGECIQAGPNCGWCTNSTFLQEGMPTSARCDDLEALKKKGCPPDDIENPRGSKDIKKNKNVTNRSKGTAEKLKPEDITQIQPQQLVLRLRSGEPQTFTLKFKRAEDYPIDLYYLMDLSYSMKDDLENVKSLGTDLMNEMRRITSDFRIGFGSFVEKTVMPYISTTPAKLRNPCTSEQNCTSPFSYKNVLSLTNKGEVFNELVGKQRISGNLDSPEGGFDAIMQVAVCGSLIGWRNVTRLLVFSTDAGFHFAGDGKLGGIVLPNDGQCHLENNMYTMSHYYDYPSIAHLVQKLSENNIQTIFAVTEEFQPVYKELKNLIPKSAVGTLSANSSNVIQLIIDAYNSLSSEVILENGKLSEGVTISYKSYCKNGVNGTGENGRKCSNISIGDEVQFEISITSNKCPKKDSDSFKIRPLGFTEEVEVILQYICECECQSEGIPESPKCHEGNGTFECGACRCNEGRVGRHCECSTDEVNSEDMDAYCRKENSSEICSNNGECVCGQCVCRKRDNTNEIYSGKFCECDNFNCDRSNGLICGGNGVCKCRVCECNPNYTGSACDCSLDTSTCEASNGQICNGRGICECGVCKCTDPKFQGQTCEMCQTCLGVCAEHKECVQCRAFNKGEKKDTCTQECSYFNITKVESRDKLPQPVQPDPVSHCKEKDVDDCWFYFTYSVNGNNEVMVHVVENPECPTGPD

Row | Molecule | Human α11β1 ELISA (human α11β1) | Off Target (α1β1, α2β1 and/or α10β1) | binding to I domain of α11β1 (high, medium, low) (I domain of α11β1) | I Domain binding (I domain of α11β1) | HPF FACS [1] | MF FACS (myofibroblasts (MF)) | I-domain binder (I domain of α11β1) | inhibition of cell adhesion to type I collagen [2] | Inhibition of CHO-K1 adhesion to collagen [2] | cross-reaction with other collagen receptors (α1β1, α2β1 and/or α10β1)
1 | 8H8E9: rat anti-α11β1 mAb; VH SEQ ID NO: 149, VL SEQ ID NO: 150 (antibody, V domains shown) VH: MAVLVLLLCLVTFPSCALSQVQLKESGPGLVQPSQTLSLTCTVSGFSLTSNSVSWVRQAPGKGLEWMGAIWSGGSTDYNSALKSRLSISRDTSKSQVFLKMNSLQTEDTAIYFCTRSHWEPFDYWGQGVMVTVSS VL: MESQTQALISLLLWVYGTCGDIVMTQSPFSLAVSEGEMVTINCKSSQGLLSSGNQKNYLAWYQQRPGQSPKLLIYYASTRQSGVPDRFIGGGSGTDFTLTISDVQAEDLADYYCLQHYSYPPTFGSGTKLEIK | Yes | No | medium | No | – | – | – | – | Yes | –
2 | 6E5C11: rat anti-α11β1 mAb; VH SEQ ID NO: 151, VL SEQ ID NO: 152 (antibody, V domains shown) VH: MAVLVLLLCLVTFPSCALSQVQLRESGPGLVQPSQTLSLTCTVSGFSLTSNSVTWVRQPPGKGLEWMGAIWSDGSTDYNSTLKSRLSISRDTSKSQVFLKMSSLQTEDTAIYFCTRSHWEPFDYWGQGVMVTVSS VL: MESQTQALISLLLWVYGTCGDIVMTQSPLSLAVSEGETVTMNCKSSQSLFSSGNQKNYLAWYQQKPGQSPKLLIYYASTRQSGVPDRFIGSGSGTDFTLTISDVQTEDLADYYCLQHYNYPPTFGSGTKLEIK | Yes | No | low | No | – | – | – | – | No | –
3 | 8-P20: mouse anti-α11β1 mAb; VH SEQ ID NO: 105, VL SEQ ID NO: 106 (antibody, V domains shown) VH: KVMLVESGGALVKPGGSLKLSCVASGFTFSNYAMSWVRQTPEKRLEWVATISSGGYYTYYPDSVKGRFTISRDNARNTLFLQMSSLRSEDTAMFYCAREDDYGRYSYTMDYWGQGTSVTVSS VL: DVVMTQTPLSLPVSLGDQVSISCRCSQSLVHSNGNTYLHWYLQKPGQSPQLLIYKISNRFSGVPDRFSGSGSGTDFTLKISRVEAEDLGVYFCSQSTHVPYTFGGGTELEIK | Yes | No | – | No | No | Yes | – | did not block cell adhesion | No | –
4 | 8-J17: mouse anti-α11β1 mAb; VH SEQ ID NO: 113, VL SEQ ID NO: 114 (antibody, V domains shown) VH: QVQLQQSGAELAKPGASVKMSCKASGYTFTNYWMHWVKQRPGQGLEWIGYINPNNGYTEYNQRFKDKATLTADRSSTTAYMQLSSLTSEDSAVYYCARSDIITTDYWGQGTTLTVSS VL: DVVMTQTPLSLPVSLGDQASISCRSSQSLVYSNGNTYLHWYLQKPGQSPKLLIYKVSNRFSGVPDRFSGSGSGTDFTLKISRVEAEDLGVYFCSQSTHVPWTFGGGTKLEIK | Yes | Yes | – | No | No | Yes | – | did not block cell adhesion; also recorded: had effect on ligand binding | No | –
5 | 18E10F10: rat anti-α11β1 mAb; VH SEQ ID NO: 155, VL SEQ ID NO: 156 (antibody, V domains shown) VH: MDIRLSLVFLVLFMKGVQCEVQLVESGGGLVQPGRSLKLSCAASRFTFSDYNMAWVRQAPKKGLEWVATIYHDDSGSYYRDSVKGRFTISRNNAKSTLYLQMDSLRSEDMATYYCARHNNGFDYWGQGVMVTVAS VL: MKWPVRLLVLFFWIPASGGDVVMTQTPVSLPVRLGGQASISCRSSQSLVHSNGNTYLHWYLQKPGQSPQLLINRVSNRFSGVPDRFSGSGSGTDFTLKINRVEPEDLGDYYCLQSTHFPLTFGSGTKLETK | Yes | No | – | No | – | – | – | – | Yes | –

Further lines, with some results ahead:

Row | Human α11β1 ELISA (human α11β1) | Off Target (α1β1, α2β1 and/or α10β1) | binding to I domain of α11β1 (high, medium, low) (I domain of α11β1) | I Domain binding (I domain of α11β1) | HPF FACS [1] | MF FACS (myofibroblasts (MF)) | Molecule | I-domain binder (I domain of α11β1) | inhibition of cell adhesion to type I collagen [2] | Inhibition of CHO-K1 adhesion to collagen [2] | cross-reaction with other collagen receptors (α1β1, α2β1 and/or α10β1)
6 | Yes | No | high | Yes | No | Yes | 79E3E3: rat anti-α11β1 mAb; VH SEQ ID NO: 145, VL SEQ ID NO: 146 (antibody, V domains shown) VH: MDWLWNLLFLMVVAQSAQAQIQLVQSGPEVKKPGESVKISCKASGYTFTDYAMNWVKQAPGNGLKWMGWINTQTGKPTYADDFKQRFVFSLETSARTTYLQINNLNIEDTATYFCTRLGTGNTKGFAYWGQGTLVTVSS VL: MESQTHVLISLLLCVSGTCGDILINQSPASLTVSAGERVTMSCKSSQSLLYSENNQDYLAWYQQKPGQFPKLLIYGASNRHTGVPDRFTGSGSGTDFTLTISSVQAEDLADYYCEQTYRYPFTFGSGTKLEIK | found to be an I-domain binder | strongly inhibited cell adhesion | Yes | –
7 | Yes | Yes (all) | – | No | – | – | 40G10H11: rat anti-α11β1 mAb; VH SEQ ID NO: 157, VL SEQ ID NO: 158 (antibody, V domains shown) VH: MDIRLSLGFLVLFIKGDQCAVQLVESGGGLVQPGRSLKLSCAASRITFTDYYMAWVRQAPTKGLEWVATISSDGGDTFYRDSVKGRFTISRDNAKSTLYLQMVSLRSEDTATYYCSTDRGAQFGYWGQGTLVTVSS VL: MAPVQLLGLLLIWLPAMRCDIQMTQSPSFLSASVGDRVSINCKASQNVHENLNWYQQKLGEAPKRLIYNTNNLQTGIPSRFSGSGSGADYTLTISSLQPEDFATYFCLQHNAFPYTFGPGTKLELK | not found to be an I-domain binder; also recorded: neither of the antibodies was found to be an I-domain binder | strongly inhibited cell adhesion; also recorded: inhibited cell adhesion | Yes | does cross-react with other collagen receptors (α1β1, a2β1 and a10β1)

Source: US12460006B2, “Antibodies against integrin alpha 11 beta 1” (Momenta Pharmaceuticals, Inc., priority 2019, dated 2025)
